From paper PMC7558026, “Exploring and applying the substrate promiscuity of a C-glycosyltransferase in the chemo-enzymatic synthesis of bioactive C-glycosides” (Nature Communications, 2020)

Legend:
[1] = test system: Influenza A/WSN/33 (H1N1); test: microbe, parasite or virus in culture; format: cell-based; conditions: ribavirin (positive control) at 30 μM, read-out: Inhibitory Rates, anti-influenza A virus activity
[2] = substrate: O=C1C[C@@](O)(c2ccc(O)cc2)Oc2cc(O)cc(O)c21; test: Kinetic parameters of AbCGT variant V183E; format: biochemical, Aloe barbadensis; conditions: other: V183E, UDP-Glc as donor; pH 7.4; 30.0 °C
Method: (§1) Assays were performed in a final volume of 100 μL 50 mM Tris-HCl (pH 7.4) at 30 °C, and contained purified recombinant AbCGT (1.5 μg) and saturating UDP-Glc (5 mM) while varying phloracetophene (11) and phloretin (17) concentrations (5–500 μM), respectively. The reactions terminated by the addition of 200 μL of ice-cold methanol. Subsequently, samples were centrifuged at 15,000 × g for 30 min to collect the supernatant, and aliquots were analyzed by HPLC as described above. All experiments were performed in triplicate. The value of Km was calculated with the method of Lineweaver–Burk plot.
(§2) Site-saturation mutagenesis of AbCGT at residue 183 was performed by PCR using pET28a-AbCGT as a template and the corresponding degenerate primers, which are listed in Supplementary Table 5. PCR products were purified and transformed into Trans1-T1 (DE3) E. coli. The sequences of pET28a-AbCGT mutants were confirmed by sequencing, and transformed into Transetta (DE3) E. coli for heterologous expression following protein purification.

[3] = substrate: O=C1C[C@@](O)(c2ccc(O)cc2)Oc2cc(O)cc(O)c21; test: Kinetic parameters of AbCGT variant V183D; format: biochemical, Aloe barbadensis; conditions: other: V183D, UDP-Glc as donor; pH 7.4; 30.0 °C
Method: as §1, §2

Molecule: NC(=O)c1ncn([C@@H]2O[C@H](CO)[C@@H](O)[C@H]2O)n1 [Ribavirin, reference compound]
- inhibition at 30 µM [1]: 85.6%

B1: AbCGT V183E (Aloe vera; V183E) (protein)
chain: MSNSGRPHVALLPSAGMGHLTPFCRLAALLSSRGGGDLDVSFITAEPTVSLKEYLQIRDLLSSFPSIKSHRFKVPELSPSQFPSSPDPFFQQWESIRRCAHLLPPLLASATALIIDTASASAVLPVAKQLNIPAYILFTSSASMLSLVAHFPSHVISSTSPSAPLMSNILIPGLKHPVPAAWEPPPLHVPGHIFSTLTVDNGRCLPEADGVIINTFDALEPEVLAALNGGRVAHGLPRVFAVGPLVAPPPPQQMEETGGGDYPIAWLDRQRDKSVVYVSFGSRTAMSPEQIRELAAGLERSGCSFLWVIKTKKVDRDEEETDLGALLGEGYVERVKGRGLVVNGWVEQEEILRHRAVGGFVSHCGWNSVTEAAVAGVRVLCWPRMGDQRLNAEVVRRSGVGVWMEEWSWEAEGGVVGGEEIGRRVKEMMEDEGLRDSAERVAEEARVALGVGGTSSKEMEEFISRIMMGS
- Km [2]: 325.4 ± 19.2 µM
- kcat/Km [2]: 0.0348 M⁻¹ s⁻¹

B2: AbCGT V183D (Aloe vera; V183D) (protein)
chain: MSNSGRPHVALLPSAGMGHLTPFCRLAALLSSRGGGDLDVSFITAEPTVSLKEYLQIRDLLSSFPSIKSHRFKVPELSPSQFPSSPDPFFQQWESIRRCAHLLPPLLASATALIIDTASASAVLPVAKQLNIPAYILFTSSASMLSLVAHFPSHVISSTSPSAPLMSNILIPGLKHPVPAAWDPPPLHVPGHIFSTLTVDNGRCLPEADGVIINTFDALEPEVLAALNGGRVAHGLPRVFAVGPLVAPPPPQQMEETGGGDYPIAWLDRQRDKSVVYVSFGSRTAMSPEQIRELAAGLERSGCSFLWVIKTKKVDRDEEETDLGALLGEGYVERVKGRGLVVNGWVEQEEILRHRAVGGFVSHCGWNSVTEAAVAGVRVLCWPRMGDQRLNAEVVRRSGVGVWMEEWSWEAEGGVVGGEEIGRRVKEMMEDEGLRDSAERVAEEARVALGVGGTSSKEMEEFISRIMMGS
- Km [3]: 209.3 ± 14.3 µM
- kcat/Km [3]: 0.0283 M⁻¹ s⁻¹
